According to patent US20100029554A1, “Composition and Methods for Treatment of Congestive Heart Failure” (Amylin Pharmaceuticals, Inc., priority 2006, published 2010):
Changes are numbered by the printed parent chain. Where no end group is shown, it is not given here.

B1: Cmpd 5035 (peptide)
peptide: HGEGTFTSDLSKQVQEEAVRLFVEFLKN-NH2
B2: Cmpd 5129 (peptide)
peptide: HGEGTFTSDVTEYLEEEAVRLFIEWLKQGGPSSGAPPPS-NH2
B3: Cmpd 5529 (peptide)
peptide: HGEGTFTSDLVKILEAEAVRKFIEFLKNGGPSSGAPPPS-NH2
B4: Cmpd 5101 (peptide)
peptide: HGEGTFTSDLSKQLEEKAAKEFIEWLIQGGPSKEIIS
B5: Cmpd 5227 (peptide)
peptide: HGEGTFTSDLSKQLEEEAVRLFIEWLIKGKP
B6: Cmpd 5295 (peptide)
peptide: HGEGTFTSDLSKQLEEEAVRLFIEWLKNGKPGKGKIRYS
B7: Cmpd 5439 (peptide)
peptide: HGEGTFTSDLSKQLEEEAVRLFIEWLKNGKPKKIRYA
B8: Cmpd 5440 (peptide)
peptide: B7 peptide with R35A, A37S
B9: Cmpd 5441 (peptide)
peptide: B7 peptide with I34A, A37S
B10: Cmpd 5442 (peptide)
peptide: B7 peptide with K33A, A37S
B11: Cmpd 5443 (peptide)
peptide: B7 peptide with K32A, A37S
B12: Cmpd 5444 (peptide)
peptide: HGEGTFTSDLSKQLEEEAVRLFIEWLKNGGPSKEIIA
B13: Cmpd 5445 (peptide)
peptide: B12 peptide with I36A, A37S
B14: Cmpd 5446 (peptide)
peptide: B12 peptide with E34A, A37S
B15: Cmpd 5451 (peptide)
peptide: B6 peptide with K33G, G34K

biological target: T1, GLP-1 receptor, endogenous in RINm5f cells (rat (RIN-m5F are called rat pancreas …, UniProt P32301 22-463)); experiment: cell-based or functional assay
T1 sequence (looked up): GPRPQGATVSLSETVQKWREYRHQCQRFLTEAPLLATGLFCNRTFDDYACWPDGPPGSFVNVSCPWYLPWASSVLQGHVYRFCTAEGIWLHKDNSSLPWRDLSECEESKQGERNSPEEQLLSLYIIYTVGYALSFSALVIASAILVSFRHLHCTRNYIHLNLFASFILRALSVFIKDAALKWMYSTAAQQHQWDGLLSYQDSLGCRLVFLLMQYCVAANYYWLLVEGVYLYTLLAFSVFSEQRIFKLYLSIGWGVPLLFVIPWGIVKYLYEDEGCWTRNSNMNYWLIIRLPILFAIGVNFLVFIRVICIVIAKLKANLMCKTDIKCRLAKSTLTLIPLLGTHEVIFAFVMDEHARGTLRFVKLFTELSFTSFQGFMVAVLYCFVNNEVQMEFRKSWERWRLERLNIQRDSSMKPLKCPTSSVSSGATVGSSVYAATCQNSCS

| Binder | cAMP, CYCLASE GLP/GIP/CT (RIN) EC50 | cAMP, GLP-1 CYCLASE (6-23) EC50 |
| --- | --- | --- |
| B1 | 628 nM | – |
| B2 | 1.09 nM | – |
| B3 | – | 0.388 nM |
| B4 | 0.863 nM | – |
| B5 | – | 0.629 nM |
| B6 | – | 0.089 nM |
| B7 | – | 0.17 nM |
| B8 | – | 0.13 nM |
| B9 | – | 0.128 nM |
| B10 | – | 0.1 nM |
| B11 | – | 0.08 nM |
| B12 | – | 0.09 nM |
| B13 | – | 0.09 nM |
| B14 | – | 0.1 nM |
| B15 | 0.205 nM | – |
